Experimental data taken from article PMC10904395, “The Deinococcus protease PprI senses DNA damage by directly interacting with single-stranded DNA”.

Molecular target: T1, DG-PprI patch 1 mutant (Deinococcus geothermalis, UniProt Q1J1D6 1-289, R85A;R207A;R267A)
T1 sequence: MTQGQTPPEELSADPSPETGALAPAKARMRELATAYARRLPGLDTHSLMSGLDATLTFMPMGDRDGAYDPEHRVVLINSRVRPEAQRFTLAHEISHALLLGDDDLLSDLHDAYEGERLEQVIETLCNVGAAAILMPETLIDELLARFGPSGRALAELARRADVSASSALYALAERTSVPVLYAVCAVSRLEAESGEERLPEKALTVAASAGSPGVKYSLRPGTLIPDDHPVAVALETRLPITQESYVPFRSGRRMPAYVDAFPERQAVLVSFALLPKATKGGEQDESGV
Assay: EMSA; EMSA: 150 mM NaCl, 20 mM Tris-HCl pH 8.0, 0.1 mg/ml BSA, 0.1 uM FAM-labeled nucleic acid, 0/1/2 uM protein, room temperature 30 min, 10% native PAGE in 1x TB
Conditions: protein: recombinant; label: 5' FAM

Binder: CGCTCTTCGCCATTCTCTTGAAGTTTCAAACTTGG (ssDNA) [35nt ssDNA]
- binding result: no binding
